Article PMC7351214

Assays:
[1] = target: C5b6 complex generated on convertase-labelled E. coli from C5 and C6 (human) (UniProt P01031)
[2] = target: C5b6 complex generated on convertase-labelled E. coli from C5 and C6 (human) (UniProt P01031); remark: listed apart in the source
[3] = target: C5b6 complex generated on convertase-labelled E. coli from C5 and C6 (human) (UniProt P01031); remark: listed apart in the source

Sequence of UniProt P01031 (P01031 19-673, chain 1 of 3): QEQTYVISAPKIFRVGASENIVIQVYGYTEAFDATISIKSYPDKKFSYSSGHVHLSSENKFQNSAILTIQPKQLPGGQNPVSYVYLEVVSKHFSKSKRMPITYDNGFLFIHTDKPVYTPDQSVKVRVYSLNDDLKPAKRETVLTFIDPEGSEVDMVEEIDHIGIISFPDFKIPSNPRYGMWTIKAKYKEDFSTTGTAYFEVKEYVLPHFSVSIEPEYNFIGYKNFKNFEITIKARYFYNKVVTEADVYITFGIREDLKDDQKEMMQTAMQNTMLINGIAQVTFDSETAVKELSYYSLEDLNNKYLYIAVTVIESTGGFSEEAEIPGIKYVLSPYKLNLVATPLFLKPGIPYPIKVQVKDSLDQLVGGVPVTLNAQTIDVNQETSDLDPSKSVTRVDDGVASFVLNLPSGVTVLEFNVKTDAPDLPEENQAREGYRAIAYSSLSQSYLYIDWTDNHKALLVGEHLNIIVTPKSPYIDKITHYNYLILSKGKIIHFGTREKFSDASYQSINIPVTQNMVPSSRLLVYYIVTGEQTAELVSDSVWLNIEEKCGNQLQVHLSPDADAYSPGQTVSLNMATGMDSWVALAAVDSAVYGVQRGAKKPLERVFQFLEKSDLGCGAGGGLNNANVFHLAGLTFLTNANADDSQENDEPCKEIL
Sequence of UniProt P01031 (P01031 752-1676, chain 2 of 3): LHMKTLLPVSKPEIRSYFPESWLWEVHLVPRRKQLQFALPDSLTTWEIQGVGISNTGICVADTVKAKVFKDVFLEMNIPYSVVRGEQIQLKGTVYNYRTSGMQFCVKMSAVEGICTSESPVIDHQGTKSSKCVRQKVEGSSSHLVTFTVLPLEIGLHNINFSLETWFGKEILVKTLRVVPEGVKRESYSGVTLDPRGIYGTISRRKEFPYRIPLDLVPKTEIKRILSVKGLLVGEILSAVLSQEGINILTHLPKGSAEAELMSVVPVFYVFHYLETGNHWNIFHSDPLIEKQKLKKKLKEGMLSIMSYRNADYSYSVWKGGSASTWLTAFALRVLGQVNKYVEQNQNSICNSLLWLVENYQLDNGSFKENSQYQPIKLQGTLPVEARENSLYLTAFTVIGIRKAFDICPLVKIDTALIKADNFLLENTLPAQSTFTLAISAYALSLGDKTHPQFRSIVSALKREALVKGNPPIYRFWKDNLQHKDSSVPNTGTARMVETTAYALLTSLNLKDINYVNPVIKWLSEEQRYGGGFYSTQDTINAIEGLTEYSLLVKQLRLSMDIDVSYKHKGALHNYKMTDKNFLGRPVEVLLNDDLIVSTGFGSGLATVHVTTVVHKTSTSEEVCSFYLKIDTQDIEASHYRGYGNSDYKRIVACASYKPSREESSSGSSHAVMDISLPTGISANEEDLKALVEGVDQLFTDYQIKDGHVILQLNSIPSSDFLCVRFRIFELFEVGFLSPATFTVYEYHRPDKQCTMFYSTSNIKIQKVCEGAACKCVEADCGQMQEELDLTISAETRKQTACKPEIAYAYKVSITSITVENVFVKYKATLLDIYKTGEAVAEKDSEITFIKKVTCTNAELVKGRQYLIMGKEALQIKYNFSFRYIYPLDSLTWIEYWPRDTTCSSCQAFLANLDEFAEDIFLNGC
Sequence of UniProt P01031 (P13671 22-934, chain 3 of 3, further chain): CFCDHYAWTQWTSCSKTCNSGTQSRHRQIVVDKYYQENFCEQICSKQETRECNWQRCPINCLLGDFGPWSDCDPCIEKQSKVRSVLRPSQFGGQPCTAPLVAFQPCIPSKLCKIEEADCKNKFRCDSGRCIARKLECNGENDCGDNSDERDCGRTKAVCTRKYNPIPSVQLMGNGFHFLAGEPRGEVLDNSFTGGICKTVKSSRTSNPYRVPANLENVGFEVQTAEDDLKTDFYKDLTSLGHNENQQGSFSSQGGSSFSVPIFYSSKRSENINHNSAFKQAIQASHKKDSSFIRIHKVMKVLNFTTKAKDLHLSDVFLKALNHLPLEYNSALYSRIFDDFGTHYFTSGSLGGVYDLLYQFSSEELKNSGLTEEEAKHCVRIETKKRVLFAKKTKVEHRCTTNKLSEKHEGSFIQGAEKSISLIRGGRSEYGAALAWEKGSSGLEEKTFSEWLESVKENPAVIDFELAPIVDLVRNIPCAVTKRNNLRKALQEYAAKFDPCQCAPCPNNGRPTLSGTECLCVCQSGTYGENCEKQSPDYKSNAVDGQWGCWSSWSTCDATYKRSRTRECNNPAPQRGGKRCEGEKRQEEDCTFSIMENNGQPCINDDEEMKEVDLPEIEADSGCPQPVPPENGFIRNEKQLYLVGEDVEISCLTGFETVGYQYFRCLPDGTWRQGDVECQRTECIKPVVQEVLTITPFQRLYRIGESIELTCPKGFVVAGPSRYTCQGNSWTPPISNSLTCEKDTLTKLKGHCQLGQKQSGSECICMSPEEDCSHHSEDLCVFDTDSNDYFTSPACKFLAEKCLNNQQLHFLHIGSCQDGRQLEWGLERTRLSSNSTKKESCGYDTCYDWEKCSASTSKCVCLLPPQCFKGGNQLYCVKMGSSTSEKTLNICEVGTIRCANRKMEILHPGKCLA

His-tagged complement component C7 (from UniProt P10643 23-843) (natural protein)
deposition of C6-Cy5 (geoMFI) on convertase-labelled E. coli MG1655 after 60 minutes, C5b6 generated in the presence of C7 against in its absence [1]: 10 fold
percentage of Sytox positive (inner membrane damaged) E. coli MG1655 after addition of C8 and C9; C7 present from t = 0 (~100%) or added 60 minutes after C5b6 generation was initiated (~6%) [2]: 100%
deposition of C9-Cy5 (geoMFI) on E. coli MG1655, C5b6 generated in the absence of C7 against in the presence of C7 [3]: 50 fold
fluorescence ratio C9:C6 on E. coli MG1655, C5b6 generated in the presence of C7 against in the absence of C7 [3]: 10 fold
